In the supplement of paper PMC10567573:

B1: PSD2 (parent)
chain: LTHFSRRYCQCNPDDSTSEDGIHT
B2: C22orf31 (parent)
chain: YSLELGKAIKQKLWEALCSQGAIS

Variants of: B1
Test: protein stability index of a GFP-peptide fusion (GPS, HEK-293T) (PSI 1-6); higher = more stable
Details: c terminus: a fixed tail appended
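Note: lentivirally expressed fusions sorted by FACS into six bins by GFP to DsRed ratio, PSI derived from sequencing read proportions per bin multiplied by bin number.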

Protein stability index of substitutions, site by site:
D20: P 2.35, W 1.46, Q 2.61, I 1.97, C 3.98, M 2.65, T 2.86, S 2.42, Y 1.81, R 2.27, G 2.71, E 3.64, N 2.5, K 2.74, L 2.31, F 2.69, H 2.99
T24: D 3.86, H 2.5, F 2.08, Q 3.37, W 2.26, M 2.52, C 2.68, Y 2.34, A 3.46, N 3.4, K 2.61, R 2.27, I 3.05, E 4.08, V 3.36, P 3.82, S 3.02, L 2.38, G 3.27
H23: V 2.93, Y 3.58, A 3.66, S 4.2, R 2.95, F 2.01, E 3.91, C 3.16, Q 3.73, M 3.82, N 3.64, L 3.73, D 3.58, P 3.9, T 2.75, W 2.62, G 3.69, I 3.21, K 2.92
E19: G 3.03, Q 3.39, V 3.33, K 2.81, W 1.87, S 2.44, P 2.37, I 2.2, F 1.94, C 3.04, D 3.34, H 2.95, M 1.94, A 2.36, R 1.59, N 2.84, T 3.02, L 2.15, Y 1.93
I22: H 3.7, E 3.87, M 3.49, N 3.98, R 3.22, T 3.59, F 2.72, K 3.12, G 3.66, A 3.91, L 3.24, Y 3.29, P 2.9, Q 3.85, V 3.71, W 2.43, D 4.27, S 3.87
S18: R 1.89, E 3.17, T 2.57, K 2.88, H 3.5, G 2.93, F 2.63, Y 2.35, W 2.28, V 2.35, I 2.99, N 3.67, L 2.35, C 3.69, P 3.58, M 2.97, D 4.03, A 3.7, Q 3.43
G21: M 2.86, H 3.34, K 2.95, E 4.26, C 2.91, L 3.25, P 3.57, N 3.33, Q 3.25, Y 2.68, A 3.57, T 4.09, D 3.73, S 3.64, R 2.93, V 2.79, W 1.96, F 2.69, I 2.63
T17: V 2.78, Y 2.39, I 2.85, L 2.66, W 2.17, H 3.18, P 3.68, N 3.6, S 2.78, R 2.78, Q 3.89, M 3.09, K 3.6

Variants of: B2
Test: as above
Details: c terminus: a fixed tail appended

Protein stability index, by site and new letter:
E4: H 2.7, C 2.69, S 1.88, L 2.69, N 3.57, M 2.42, Y 3.11, Q 3.4, V 3.23, G 1.56, K 3.04, D 3.44, A 2.96, F 3.85, I 3.45, W 3.56
L3: Y 2.44, P 1.64, T 1.89, V 3.15, G 1.43, M 2.18, F 2.43, K 2.03, H 1.66, N 2.19, A 2.39, E 2.53, S 1.75, I 1.79, D 1.38
Y1: R 2.88, P 2.12, Q 2.81, N 2.16, T 3.1, V 2.56, H 2.79, L 2.91, D 1.87, I 3.2, E 1.22, A 1.69, C 2.58, K 3.44, F 2.8
K12: W 2.25, D 1.56, A 3.38, Y 1.93, F 2.11, V 2.49, P 1.51, R 1.53, H 1.98, L 2.66, E 1.85, N 1.93, Q 2.26, G 1.07, S 1.39, T 2.87, I 3.58, C 2.03
L13: Q 1.92, I 2.33, A 1.41, D 2.37, M 2.17, F 1.13, E 3.05, C 1.35, N 2.63, H 2.48, K 1.47, P 2.04, G 1.88
L5: W 1.96, E 2.21, N 1.59, Y 1.86, H 2.19, T 1.75, P 1.62, Q 1.35, D 2.11, M 2.14, I 3.07, A 1.83, F 4.05, K 2.64, S 1.5, G 1.82
Q11: G 3.21, R 3.36, W 3.82, P 1.36, I 1.75, A 2.47, S 2.01, F 3.62, Y 1.92
A8: Q 1.64, F 1.7, Y 2.97, I 2.24, K 1.61, M 2.31, H 2.73, D 1.76, E 2.17, S 2.19, V 2.75, P 1.84, R 2.51, G 1.63, N 2.57, W 1.81, T 1.97
I9: Q 1.94, N 2.07, P 1.99, D 2.39, R 1.87, F 2.02, E 2.97, G 1.84, C 1.79, Y 3.02, H 2.07, K 2.24, M 1.07, A 1.35, V 2.26, T 2.38, S 1.97
G6: W 3.02, Y 2.27, H 1.59, D 1.9, Q 1.98, R 2.73, K 1.73, T 1.86, P 1.36, N 1.91, F 2.28, E 2.03, C 2.16, A 1.94, L 2.97, S 1.25
K7: P 2.68, C 1.73, D 2.63, E 2.34, I 3.6, Q 2, V 2.31, R 1.6, Y 2.1, G 1.24, T 2.46
K10: A 1.52, C 2.31, N 2.54, D 1.63, F 3.08, R 1.15, H 1.95, I 2.95, M 2.22, Q 2.64, P 2.27, Y 1.9, E 2.55
S2: T 2.86, M 2.38, G 2.35, A 1.79, N 2.79, D 1.56, K 2.68, V 1.12, E 1.59, H 2.43, Q 1.57, Y 3.28, P 2.3, R 2.42, C 2.15
